For 131 substances, amyloid nucleation score results are on record in the supplement of paper PMC12042874.

± gives the uncertainty stated by the source.

This data set in a line: amyloid nucleation score (Sup35N fusion, yeast selection) (log enrichment); library NNK3; higher = more nucleation; inactive = no reads after selection. The gist of the method:
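The nucleation score, computed with DiMSum, is the log enrichment of output over input reads, centred on the mode score of non-aggregating sequences. Sequences with under 100 input reads were dropped. Reads were generated by Illumina sequencing of plasmid inserts from psi-negative yeast with Sup35N fused to peptides of 20 random codons, induced with 100 μM copper sulfate for 24 hours and grown 7 days at 30°C on medium lacking adenine and uracil.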
Regarding SSSLVRCHG, the amyloid nucleation score result was “inactive”. Regarding QAKGIRYVGGLTWYNH, the amyloid nucleation score entry is “inactive”.

Consider GYFTRFSVFNNMEPLSCCMC, for which the amyloid nucleation score worked out at 1.38 ± 0.13.

On to YTLKCIQVVWLSMPVSVSNV, for which the amyloid nucleation score entry was “inactive”. As for YSRSQTMSTACNVVYVFSGQ, the amyloid nucleation score entry is “inactive”. With WPAAQVNQIHYCVGLNNYTW, the amyloid nucleation score entry is “inactive”.

On to FYKMVGVRYGC, for which the amyloid nucleation score result is “inactive”.

As for LYNYAVSISTLIH, the amyloid nucleation score stood at 0.971 ± 0.2. Next, FLYWVGSFEAEPV: “inactive”; FSRLFCNSALCIMRFVNTSS: 1.52 ± 0.088; CCGEHRVGQWV: 0.157 ± 0.27. For LDFCFLGHRWRSFSGSYRKS the value was “inactive”; for LSFVCTEETHGTNDSAGYNF, “inactive”. Next, HQVGYGLHGPG: -0.539 ± 0.96; LHGHTWSWSLDWLSYMTAVQ: “inactive”.

Consider GWNLGMAHSRRYGPVNISAW, for which the amyloid nucleation score entry was “inactive”. Next, NVFLSRFMVMRKMVWFTEF: “inactive”. Next, FLGFEYILIAFRVGQYYLTG: “inactive”. Regarding GCKRVVTTV, the amyloid nucleation score was -0.606 ± 0.93. Next, NCTFAGLAMFGNILN: “inactive”; VCSFCCFGTVRSL: 2.1 ± 0.058. Take RLKRYLHSMTHRRMRERYCY: the amyloid nucleation score entry was “inactive”. Next, VFVKCWNVGSCIATDEYMSE: 2.2 ± 0.078; SIFHLTSKVYISDWFC: 2 ± 0.088; QNILLNVIVTRFGSLQWRSE: 1.83 ± 0.056. Next, LSSWFHFLSNTATRQKVWRS: “inactive”; VLISVLSRLRCMSGGLYTPN: “inactive”. For CLRDCKTPDSATHTRAINGL the value was “inactive”; for SYRGSRRRSFTSYLCEFEGM, “inactive”; for FYWGAFNPYFVLIGILAYYT, “inactive”. On to QLLQVWVNMFKTTAISWIVF, for which the amyloid nucleation score result is “inactive”. Consider SVKTGYVDRPNLRTTFYGCL, for which the amyloid nucleation score result is “inactive”. On to MMPDYKPR, for which the amyloid nucleation score result was “inactive”. For LHQCRDKL the value was “inactive”; for FFKFFWFSRRPISSFLGLCV, 0.708 ± 0.15. For NDLSGKTCNGRRVEDRAPMA the value was -0.114 ± 0.44; for DIERGFGDSCKNGHFAVGSV, -0.629 ± 1.1. Next, LLGSSFFIRLFWTSSSFAAK: “inactive”; LSCPLVYSTSSFIK: “inactive”; CLRRVPLQRSSFLSVNLKLM: “inactive”.

As for DNLPTRRYLNKNDWRGASYL, the amyloid nucleation score result was “inactive”. Next, TCHLSKHEISYQLGDTNGHC: -0.516 ± 0.9. For FYSSACVRPVVRYCCVMCDS the value was “inactive”. Next, YASVRVQFCCIFKSADRASP: 1.9 ± 0.088; RMEKIRTKVNSVTDSSWKSR: “inactive”; DARVVGVLDVRDLAKYFWMA: “inactive”. Take NMMFILGFFNNKY: the amyloid nucleation score was determined as 2.38 ± 0.076. For RGWDVWAVHSEFYCLKKLIV the value was “inactive”; for ISDTSCHIDTLRFLGRVRFL, “inactive”; for DRFEMPDVLWCRDYCNIARS, “inactive”. In turn, CSVGSFFRFDIIYWKYAGSL showed an amyloid nucleation score of -0.2 ± 0.36.

SDNELMIAFESG: the amyloid nucleation score result was “inactive”. As to GNALSIEVDGSIK, the amyloid nucleation score result is “inactive”. Next, LTVCV: “inactive”. On to YRILRRYSDPAHEDIKRCTL, for which the amyloid nucleation score result is “inactive”. Next, YVIGDVIIFPSSFMINCLYC: 2.4 ± 0.081; CNCPPPPSSRYYSFSKAVYG: “inactive”. Next, LFTWKCDLGSRRAKGSGLGS: 1.42 ± 0.13.

As to SVKKESCCD, the amyloid nucleation score entry is “inactive”. Regarding SHGHYCIVFVFTRL, the amyloid nucleation score result is “inactive”.

Consider EFTNMYLPNSQQEVRFLQGL, for which the amyloid nucleation score result is “inactive”. Consider HRLVRLSVRMSRRTYS, for which the amyloid nucleation score result was “inactive”. For SVSADGGFCIHGQTRPMAGL the value was 1.21 ± 0.095; for VVRYPSMKE, “inactive”; for GESLQLECLYFTFIKMYVSL, “inactive”. For WIRSNATFNATGVKFSSTCH the value was “inactive”.

YYFPWLYAKYSVVIINDMEP returned an amyloid nucleation score of 2.64 ± 0.05. On to NVRGEENVKNILSGVL, for which the amyloid nucleation score result was “inactive”. As for AFKECARRR, the amyloid nucleation score result is “inactive”. For MCYQNMR, the amyloid nucleation score result is “inactive”. For RTHRRKSDTVMLES the value was “inactive”; for EKYWNN, “inactive”; for ADLPVIHNNKRLVVVWHWLN, “inactive”. Next, LVYPQIYVQV: “inactive”.

For the substance ISSAYCGHIGLAAINRLILT, the amyloid nucleation score entry was “inactive”. LSSFRPSYEYYLRDISAMSW: the amyloid nucleation score entry is “inactive”.

GTAIIEGTM: the amyloid nucleation score entry is “inactive”.

On to WMFGQSIAALFSWGTVCGLV, for which the amyloid nucleation score result was “inactive”. Next, GVHWETDEGNVVRL: “inactive”; LNVMFSFRYPWFSVFVLMIV: “inactive”; NSTYSSF: “inactive”. As to YMDPWYVIDHCLWRQMFLSE, the amyloid nucleation score is -0.557 ± 1.

Substance QDTLYMLDPGG gave an amyloid nucleation score of -0.318 ± 0.7.

Turning to AWGSVYVALVWRWNFRCVR, the amyloid nucleation score entry was “inactive”. Next, KYCGLSRPIAFSPVVKKHLM: “inactive”.

On to TAKTRC, for which the amyloid nucleation score is -0.272 ± 0.96. Next, IIKWSCYNLSLYHTKCKDAE: “inactive”; DTVMGSCDEFYLFASRHLCL: “inactive”; SKSKYHFYHHGEAWSTLVVV: “inactive”.

Consider RYNGTGIKYWKTY, for which the amyloid nucleation score entry was “inactive”. For DLGRNYIVNGIL the value was “inactive”; for CTSTAVLGSVLCK, “inactive”. Take AVYQLDMCDLVMVSLDGTVR: the amyloid nucleation score result is “inactive”. Take SRVLILM: the amyloid nucleation score result was “inactive”. For LIRQRLDRLVQHFVDFRVFF the value was “inactive”; for GALSYKSKSWRS, “inactive”.

In turn, LSGLESVRSSYDWVVGGWIS yielded an amyloid nucleation score of -0.329 ± 1.3. For the substance VSMCNLNGVLPLNLFRLGLC, the amyloid nucleation score result is “inactive”. As for LLTKSLNPYMMGCSSSIMQC, the amyloid nucleation score entry is “inactive”. Consider SMYLYVAWARVLNDLDNID, for which the amyloid nucleation score result was “inactive”. As to MRELQENVNDDS, the amyloid nucleation score entry was “inactive”. For NLWYLVMLISDFCEPRKEWY the value was “inactive”. Next, MSLWCTITGECKGDGWY: “inactive”; CPLVFDMILVSLCSNGAGLI: “inactive”.

For the substance TCRPFIT, the amyloid nucleation score entry is “inactive”.

As to RPRMPVRLWWYTKLGYFKDR, the amyloid nucleation score result is “inactive”. On to GGLRNNPKRVIRDEDVQVHM, for which the amyloid nucleation score result is “inactive”. On to VYKWSNVLM, for which the amyloid nucleation score result was “inactive”. Next, TRWRLSVYERVGARRDTPLC: “inactive”; DMSSSGITGTEFRCNYYHEY: “inactive”. Next, QLIELGRVVTCV: “inactive”; YLVYRNVTMVCPDRQH: 0.375 ± 0.27; VLCCLDYIYPVGALGYYACI: “inactive”.

Turning to GVLCMFGSTWRMFMEVGLHV, the amyloid nucleation score result is “inactive”. With IIGWASWCVGKGHLTFCQLV, the amyloid nucleation score result was “inactive”. As to IKTGYSTHDPNHVDNTIRSR, the amyloid nucleation score entry was “inactive”.

Turning to QLRICTR, the amyloid nucleation score was -0.358 ± 1.1.

With STSICIGLLYAFVFEARVLC, the amyloid nucleation score entry was “inactive”.

For YPYSSVTRNILCVENRCTGW, the amyloid nucleation score result was “inactive”. For APVCQWATKARIKCAHWRRT the value was “inactive”; for HIVSSAMSVT, “inactive”; for PNAIILVQYTYIVGMRGGHS, 1.11 ± 0.08. Next, YLRVWPMRVYNMP: “inactive”; DNISHLAFCFNMALWYSNQS: 1.23 ± 0.14. On to VCSLVLWSLSSWWTRYGTLR, for which the amyloid nucleation score result was “inactive”.

For the substance TRRSKGQFIYCPSNGMKCSG, the amyloid nucleation score result is “inactive”. For CYLGSHSFSAYCGQLFIFSV the value was “inactive”; for FGQCNQVCCSEWDKD, “inactive”. Next, TRKMLLVVSKYVMTPYGFGL: “inactive”. Next, GVVVWYSGDWTECMVVNRCD: 0.78 ± 0.12; SVYECNLIRDFIDRQGPNLA: 2.25 ± 0.058.
